{"source": "paper PMC2168396", "about": "(The EMBO Journal, 2007)", "binders": {"B1": {"name": "talin 2334–2541 (upstream helix deleted) (domain or fragment, mouse, UniProt P26039 2334-2541, looked up)", "chain": "EADESLNFEEQILEAAKSIAAATSALVKAASAAQRELVAQGKVGAIPANALDDGQWSQGLISAARMVAAATNNLCEAANAAVQGHASQEKLISSAKQVAASTAQLLVACKVKADQDSEAMKRLQAAGNAVKRASDNLVKAAQKAAAFEDQENETVVVKEKMVGGIAQIIAAQEEMLRKERELEEARKKLAQIRQQQYKFLPSELRDEH"}, "B2": {"name": "talin 2300–2541 Q2388R (domain or fragment, mouse, UniProt P26039 2300-2541, looked up)", "chain": "DPTVIAENELLGAAAAIEAAAKKLEQLKPRAKPKEADESLNFEEQILEAAKSIAAATSALVKAASAAQRELVAQGKVGAIPANALDDGRWSQGLISAARMVAAATNNLCEAANAAVQGHASQEKLISSAKQVAASTAQLLVACKVKADQDSEAMKRLQAAGNAVKRASDNLVKAAQKAAAFEDQENETVVVKEKMVGGIAQIIAAQEEMLRKERELEEARKKLAQIRQQQYKFLPSELRDEH"}, "B3": {"name": "talin 2300–2541 V2444D (domain or fragment, mouse, UniProt P26039 2300-2541, looked up)", "chain": "B2 chain with R89Q, V145D"}, "B4": {"name": "talin 2300–2541 R2510A (domain or fragment, mouse, UniProt P26039 2300-2541, looked up)", "chain": "B2 chain with R89Q, R211A"}, "B5": {"name": "talin 2300–2541 R2513A (domain or fragment, mouse, UniProt P26039 2300-2541, looked up)", "chain": "B2 chain with R89Q, R214A"}, "B6": {"name": "talin 2300–2541 Q2437E (domain or fragment, mouse, UniProt P26039 2300-2541, looked up)", "chain": "B2 chain with R89Q, Q138E"}, "B7": {"name": "talin 2300–2541 V2376D (domain or fragment, mouse, UniProt P26039 2300-2541, looked up)", "chain": "B2 chain with V77D, R89Q"}}, "key": {"[1]": {"target": "filamentous actin (F-actin) from rabbit skeletal muscle (rabbit, UniProt P68135 1-377)", "test": "co-sedimentation"}, "SEC + other: NMR": {"target": "the molecule itself", "test": "SEC + other: NMR"}, "crystal structure": {"target": "the molecule itself", "test": "crystal structure"}}, "note": "Numbering of substitutions follows the chain as printed. In names and notes the source's numbering stands. Ends that are not written are not given here."}
{"binder": "B1", "values": [{"measurement": "co-sedimentation pellet (% of WT)", "setting": "[1]", "result": "262 ± 18 % of WT"}, {"measurement": "stoichiometry N", "setting": "SEC + other: NMR", "result": 2}]}
{"binder": "B2", "values": [{"measurement": "co-sedimentation pellet (% of WT)", "setting": "[1]", "result": "102 ± 9 % of WT"}, {"measurement": "stoichiometry N", "setting": "SEC + other: NMR", "result": 2}]}
{"binder": "B3", "values": [{"measurement": "co-sedimentation pellet (% of WT)", "setting": "[1]", "result": "54 ± 10 % of WT"}, {"measurement": "stoichiometry N", "setting": "SEC + other: NMR", "result": 2}]}
{"binder": "B4", "values": [{"measurement": "co-sedimentation pellet (% of WT)", "setting": "[1]", "result": "77 ± 5 % of WT"}, {"measurement": "stoichiometry N", "setting": "SEC + other: NMR", "result": 2}]}
{"binder": "B5", "values": [{"measurement": "co-sedimentation pellet (% of WT)", "setting": "[1]", "result": "66 ± 14 % of WT"}, {"measurement": "stoichiometry N", "setting": "SEC + other: NMR", "result": 2}]}
{"binder": "B6", "values": [{"measurement": "co-sedimentation pellet (% of WT)", "setting": "[1]", "result": "62 ± 13 % of WT"}, {"measurement": "stoichiometry N", "setting": "SEC + other: NMR", "result": 2}]}
{"binder": "B7", "values": [{"measurement": "co-sedimentation pellet (% of WT)", "setting": "[1]", "result": "95 ± 5 % of WT"}, {"measurement": "stoichiometry N", "setting": "SEC + other: NMR", "result": 2}]}
{"binder": "MVGGIAQIIAAQEEMLRKERELEEARKKLAQIRQQQYKFLPSELRDEH (domain or fragment, mouse, UniProt P26039 2494-2541, looked up, also: selenomethionine in derivative used for phasing)", "note": "[talin 2494–2541 (dimerisation domain)]", "values": [{"measurement": "binding result", "setting": "crystal structure", "result": "binds"}]}
